Patent US20210388087A1 (Chugai, published 2021)

Target: T1, Human CD137 ECD (human)
T1 construct: also called 4-1BB
Experiment: single mutant vs template dBBDu183H

T1 sequence (chain, as listed by the source limits assumed): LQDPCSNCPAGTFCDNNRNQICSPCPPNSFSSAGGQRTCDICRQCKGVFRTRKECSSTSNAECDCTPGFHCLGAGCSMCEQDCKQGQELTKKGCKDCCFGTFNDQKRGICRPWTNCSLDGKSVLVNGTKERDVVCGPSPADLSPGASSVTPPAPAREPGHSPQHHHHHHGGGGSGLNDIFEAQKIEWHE

fold change of affinity [fold] | Binder
1 | H183/L072 VH A54M (antibody, name in Kabat numbering, V domains shown) VH: QVQLVESGGGLVQPGRSLRLSCAASGFTFSNAWMHWVRQAPGKGLEWVAQIKDKGNMYAAYYAPSVKGRFTISRDDSKNSIYLQMNSLKTEDTAVYYCHYVHYASASTVLPAFGVDAWGQGTTVTVSS VL: DIVMTQSPLSLPVTPGEPASISCQASQELVHMNRNTYLHWYQQKPGQAPRLLIYKVSNRFPGVPDRFSGSGSGTDFTLKISRVEAEDVGVYYCAQGTSVPFTFGQGTKLEIK
0.3 | H183/L072 VH A56D (antibody, name in Kabat numbering, V domains shown) VH: QVQLVESGGGLVQPGRSLRLSCAASGFTFSNAWMHWVRQAPGKGLEWVAQIKDKGNAYDAYYAPSVKGRFTISRDDSKNSIYLQMNSLKTEDTAVYYCHYVHYASASTVLPAFGVDAWGQGTTVTVSS VL: DIVMTQSPLSLPVTPGEPASISCQASQELVHMNRNTYLHWYQQKPGQAPRLLIYKVSNRFPGVPDRFSGSGSGTDFTLKISRVEAEDVGVYYCAQGTSVPFTFGQGTKLEIK
0.8 | H183/L072 VH A56K (antibody, name in Kabat numbering, V domains shown) VH: QVQLVESGGGLVQPGRSLRLSCAASGFTFSNAWMHWVRQAPGKGLEWVAQIKDKGNAYKAYYAPSVKGRFTISRDDSKNSIYLQMNSLKTEDTAVYYCHYVHYASASTVLPAFGVDAWGQGTTVTVSS VL: DIVMTQSPLSLPVTPGEPASISCQASQELVHMNRNTYLHWYQQKPGQAPRLLIYKVSNRFPGVPDRFSGSGSGTDFTLKISRVEAEDVGVYYCAQGTSVPFTFGQGTKLEIK
0.5 | H183/L072 VH A56E (antibody, name in Kabat numbering, V domains shown) VH: QVQLVESGGGLVQPGRSLRLSCAASGFTFSNAWMHWVRQAPGKGLEWVAQIKDKGNAYEAYYAPSVKGRFTISRDDSKNSIYLQMNSLKTEDTAVYYCHYVHYASASTVLPAFGVDAWGQGTTVTVSS VL: DIVMTQSPLSLPVTPGEPASISCQASQELVHMNRNTYLHWYQQKPGQAPRLLIYKVSNRFPGVPDRFSGSGSGTDFTLKISRVEAEDVGVYYCAQGTSVPFTFGQGTKLEIK
1.1 | H183/L072 VH A54N (antibody, name in Kabat numbering, V domains shown) VH: QVQLVESGGGLVQPGRSLRLSCAASGFTFSNAWMHWVRQAPGKGLEWVAQIKDKGNNYAAYYAPSVKGRFTISRDDSKNSIYLQMNSLKTEDTAVYYCHYVHYASASTVLPAFGVDAWGQGTTVTVSS VL: DIVMTQSPLSLPVTPGEPASISCQASQELVHMNRNTYLHWYQQKPGQAPRLLIYKVSNRFPGVPDRFSGSGSGTDFTLKISRVEAEDVGVYYCAQGTSVPFTFGQGTKLEIK
0.6 | H183/L072 VH A56G (antibody, name in Kabat numbering, V domains shown) VH: QVQLVESGGGLVQPGRSLRLSCAASGFTFSNAWMHWVRQAPGKGLEWVAQIKDKGNAYGAYYAPSVKGRFTISRDDSKNSIYLQMNSLKTEDTAVYYCHYVHYASASTVLPAFGVDAWGQGTTVTVSS VL: DIVMTQSPLSLPVTPGEPASISCQASQELVHMNRNTYLHWYQQKPGQAPRLLIYKVSNRFPGVPDRFSGSGSGTDFTLKISRVEAEDVGVYYCAQGTSVPFTFGQGTKLEIK
0.8 | H183/L072 VH A56Q (antibody, name in Kabat numbering, V domains shown) VH: QVQLVESGGGLVQPGRSLRLSCAASGFTFSNAWMHWVRQAPGKGLEWVAQIKDKGNAYQAYYAPSVKGRFTISRDDSKNSIYLQMNSLKTEDTAVYYCHYVHYASASTVLPAFGVDAWGQGTTVTVSS VL: DIVMTQSPLSLPVTPGEPASISCQASQELVHMNRNTYLHWYQQKPGQAPRLLIYKVSNRFPGVPDRFSGSGSGTDFTLKISRVEAEDVGVYYCAQGTSVPFTFGQGTKLEIK
1 | H183/L072 VH A54Q (antibody, name in Kabat numbering, V domains shown) VH: QVQLVESGGGLVQPGRSLRLSCAASGFTFSNAWMHWVRQAPGKGLEWVAQIKDKGNQYAAYYAPSVKGRFTISRDDSKNSIYLQMNSLKTEDTAVYYCHYVHYASASTVLPAFGVDAWGQGTTVTVSS VL: DIVMTQSPLSLPVTPGEPASISCQASQELVHMNRNTYLHWYQQKPGQAPRLLIYKVSNRFPGVPDRFSGSGSGTDFTLKISRVEAEDVGVYYCAQGTSVPFTFGQGTKLEIK
0.9 | H183/L072 VH A54R (antibody, name in Kabat numbering, V domains shown) VH: QVQLVESGGGLVQPGRSLRLSCAASGFTFSNAWMHWVRQAPGKGLEWVAQIKDKGNRYAAYYAPSVKGRFTISRDDSKNSIYLQMNSLKTEDTAVYYCHYVHYASASTVLPAFGVDAWGQGTTVTVSS VL: DIVMTQSPLSLPVTPGEPASISCQASQELVHMNRNTYLHWYQQKPGQAPRLLIYKVSNRFPGVPDRFSGSGSGTDFTLKISRVEAEDVGVYYCAQGTSVPFTFGQGTKLEIK
0.9 | H183/L072 VH A54S (antibody, name in Kabat numbering, V domains shown) VH: QVQLVESGGGLVQPGRSLRLSCAASGFTFSNAWMHWVRQAPGKGLEWVAQIKDKGNSYAAYYAPSVKGRFTISRDDSKNSIYLQMNSLKTEDTAVYYCHYVHYASASTVLPAFGVDAWGQGTTVTVSS VL: DIVMTQSPLSLPVTPGEPASISCQASQELVHMNRNTYLHWYQQKPGQAPRLLIYKVSNRFPGVPDRFSGSGSGTDFTLKISRVEAEDVGVYYCAQGTSVPFTFGQGTKLEIK
0.7 | H183/L072 VH A56M (antibody, name in Kabat numbering, V domains shown) VH: QVQLVESGGGLVQPGRSLRLSCAASGFTFSNAWMHWVRQAPGKGLEWVAQIKDKGNAYMAYYAPSVKGRFTISRDDSKNSIYLQMNSLKTEDTAVYYCHYVHYASASTVLPAFGVDAWGQGTTVTVSS VL: DIVMTQSPLSLPVTPGEPASISCQASQELVHMNRNTYLHWYQQKPGQAPRLLIYKVSNRFPGVPDRFSGSGSGTDFTLKISRVEAEDVGVYYCAQGTSVPFTFGQGTKLEIK

Continued, binder first:

Binder | fold change of affinity [fold]
H183/L072 VH A56P (antibody, name in Kabat numbering, V domains shown) VH: QVQLVESGGGLVQPGRSLRLSCAASGFTFSNAWMHWVRQAPGKGLEWVAQIKDKGNAYPAYYAPSVKGRFTISRDDSKNSIYLQMNSLKTEDTAVYYCHYVHYASASTVLPAFGVDAWGQGTTVTVSS VL: DIVMTQSPLSLPVTPGEPASISCQASQELVHMNRNTYLHWYQQKPGQAPRLLIYKVSNRFPGVPDRFSGSGSGTDFTLKISRVEAEDVGVYYCAQGTSVPFTFGQGTKLEIK | 0.2
H183/L072 VH A56H (antibody, name in Kabat numbering, V domains shown) VH: QVQLVESGGGLVQPGRSLRLSCAASGFTFSNAWMHWVRQAPGKGLEWVAQIKDKGNAYHAYYAPSVKGRFTISRDDSKNSIYLQMNSLKTEDTAVYYCHYVHYASASTVLPAFGVDAWGQGTTVTVSS VL: DIVMTQSPLSLPVTPGEPASISCQASQELVHMNRNTYLHWYQQKPGQAPRLLIYKVSNRFPGVPDRFSGSGSGTDFTLKISRVEAEDVGVYYCAQGTSVPFTFGQGTKLEIK | 0.6
H183/L072 VH A56N (antibody, name in Kabat numbering, V domains shown) VH: QVQLVESGGGLVQPGRSLRLSCAASGFTFSNAWMHWVRQAPGKGLEWVAQIKDKGNAYNAYYAPSVKGRFTISRDDSKNSIYLQMNSLKTEDTAVYYCHYVHYASASTVLPAFGVDAWGQGTTVTVSS VL: DIVMTQSPLSLPVTPGEPASISCQASQELVHMNRNTYLHWYQQKPGQAPRLLIYKVSNRFPGVPDRFSGSGSGTDFTLKISRVEAEDVGVYYCAQGTSVPFTFGQGTKLEIK | 0.7
H183/L072 VH A56R (antibody, name in Kabat numbering, V domains shown) VH: QVQLVESGGGLVQPGRSLRLSCAASGFTFSNAWMHWVRQAPGKGLEWVAQIKDKGNAYRAYYAPSVKGRFTISRDDSKNSIYLQMNSLKTEDTAVYYCHYVHYASASTVLPAFGVDAWGQGTTVTVSS VL: DIVMTQSPLSLPVTPGEPASISCQASQELVHMNRNTYLHWYQQKPGQAPRLLIYKVSNRFPGVPDRFSGSGSGTDFTLKISRVEAEDVGVYYCAQGTSVPFTFGQGTKLEIK | 0.8
H183/L072 VH A56I (antibody, name in Kabat numbering, V domains shown) VH: QVQLVESGGGLVQPGRSLRLSCAASGFTFSNAWMHWVRQAPGKGLEWVAQIKDKGNAYIAYYAPSVKGRFTISRDDSKNSIYLQMNSLKTEDTAVYYCHYVHYASASTVLPAFGVDAWGQGTTVTVSS VL: DIVMTQSPLSLPVTPGEPASISCQASQELVHMNRNTYLHWYQQKPGQAPRLLIYKVSNRFPGVPDRFSGSGSGTDFTLKISRVEAEDVGVYYCAQGTSVPFTFGQGTKLEIK | 0.2
H183/L072 VH A54T (antibody, name in Kabat numbering, V domains shown) VH: QVQLVESGGGLVQPGRSLRLSCAASGFTFSNAWMHWVRQAPGKGLEWVAQIKDKGNTYAAYYAPSVKGRFTISRDDSKNSIYLQMNSLKTEDTAVYYCHYVHYASASTVLPAFGVDAWGQGTTVTVSS VL: DIVMTQSPLSLPVTPGEPASISCQASQELVHMNRNTYLHWYQQKPGQAPRLLIYKVSNRFPGVPDRFSGSGSGTDFTLKISRVEAEDVGVYYCAQGTSVPFTFGQGTKLEIK | 0.3
H183/L072 VH A54V (antibody, name in Kabat numbering, V domains shown) VH: QVQLVESGGGLVQPGRSLRLSCAASGFTFSNAWMHWVRQAPGKGLEWVAQIKDKGNVYAAYYAPSVKGRFTISRDDSKNSIYLQMNSLKTEDTAVYYCHYVHYASASTVLPAFGVDAWGQGTTVTVSS VL: DIVMTQSPLSLPVTPGEPASISCQASQELVHMNRNTYLHWYQQKPGQAPRLLIYKVSNRFPGVPDRFSGSGSGTDFTLKISRVEAEDVGVYYCAQGTSVPFTFGQGTKLEIK | 0.5
H183/L072 VH A54Y (antibody, name in Kabat numbering, V domains shown) VH: QVQLVESGGGLVQPGRSLRLSCAASGFTFSNAWMHWVRQAPGKGLEWVAQIKDKGNYYAAYYAPSVKGRFTISRDDSKNSIYLQMNSLKTEDTAVYYCHYVHYASASTVLPAFGVDAWGQGTTVTVSS VL: DIVMTQSPLSLPVTPGEPASISCQASQELVHMNRNTYLHWYQQKPGQAPRLLIYKVSNRFPGVPDRFSGSGSGTDFTLKISRVEAEDVGVYYCAQGTSVPFTFGQGTKLEIK | 0.9
H183/L072 VH A56L (antibody, name in Kabat numbering, V domains shown) VH: QVQLVESGGGLVQPGRSLRLSCAASGFTFSNAWMHWVRQAPGKGLEWVAQIKDKGNAYLAYYAPSVKGRFTISRDDSKNSIYLQMNSLKTEDTAVYYCHYVHYASASTVLPAFGVDAWGQGTTVTVSS VL: DIVMTQSPLSLPVTPGEPASISCQASQELVHMNRNTYLHWYQQKPGQAPRLLIYKVSNRFPGVPDRFSGSGSGTDFTLKISRVEAEDVGVYYCAQGTSVPFTFGQGTKLEIK | 0.5
H183/L072 VH A54W (antibody, name in Kabat numbering, V domains shown) VH: QVQLVESGGGLVQPGRSLRLSCAASGFTFSNAWMHWVRQAPGKGLEWVAQIKDKGNWYAAYYAPSVKGRFTISRDDSKNSIYLQMNSLKTEDTAVYYCHYVHYASASTVLPAFGVDAWGQGTTVTVSS VL: DIVMTQSPLSLPVTPGEPASISCQASQELVHMNRNTYLHWYQQKPGQAPRLLIYKVSNRFPGVPDRFSGSGSGTDFTLKISRVEAEDVGVYYCAQGTSVPFTFGQGTKLEIK | 0.8
